Assay results published in patent publication US20180195091A1, “THERMOPHILIC MICROORGANISMS FOR CONVERSION OF LIGNOCELLULOSIC BIOMASS TO ETHANOL” (THE TRUSTEES OF DARTMOUTH COLLEGE, priority 2015, published 2018).
Several values for one entry are separate records, joined by “and”; a condition that tells them apart may be missing. Equal entries are not always repeated.

Legend:
[1] = tested on: purified AdhE proteins in C. thermocellum, with the exception of LL346; test: Product inhibition of purified AdhE; format: biochemical, Clostridium thermocellum; conditions: concentration not stated
Description: The E. coli crude extracts described above were incubated at 50° C. anaerobically for 20 min to denature E. coli proteins, and the denatured proteins were separated by centrifugation. In strains LL346 and LL1040, the AdhE proteins were heat labile, and lost activity after 50° C. incubation, so these cell extracts were applied directly to the purification column without heating. E. coli cells expressing the control plasmid pNT-CALML3 were subject to the same treatment as above, and its ADH and ALDH activities before and after heat treatment were measured (Table S3). […] For C. thermocellum and T. saccharolyticum AdhE, activity was measured at various stages during purification. […]
All the ALDH activity measurements mentioned in this study refer to the reaction in the acetaldehyde-producing direction. […] Decrease in absorbance at 340 nm caused by NAD(P)H oxidation was monitored by an Agilent 8453 UV-Vis spectrophotometer with Peltier temperature control. Protein concentration was determined using the Bradford method with bovine serum albumin (Thermo Scientific) as the standard. Specific activities are expressed as units per mg of protein. […] The software Visual Enzymics (SoftZymics) was used for non-linear regression to calculate the apparent Km, and kcat values in Table 10. kcat was calculated on the basis of a molecular weight of 97-kDa (26). […]

[2] = biological target: Clostridium thermocellum LL346 (ethanol-tolerant) AdhE, mutations P704L and H734R (Acetivibrio thermocellus, UniProt A3DCI2, H734R/P704L)
[3] = substrate: CC=O; test: purified protein, by the assay type; conditions: pH 7.0; 55.0 °C
[4] = substrate: NC(=O)C1=CN([C@@H]2O[C@H](COP(=O)(O)OP(=O)(O)OC[C@H]3O[C@@H](n4cnc5c(N)ncnc54)[C@H](O)[C@@H]3O)[C@@H](O)[C@H]2O)C=CC1; test: purified protein, by the assay type; conditions: pH 7.0; 55.0 °C
[5] = substrate: NC(=O)C1=CN([C@@H]2O[C@H](COP(=O)(O)OP(=O)(O)OC[C@H]3O[C@@H](n4cnc5c(N)ncnc54)[C@H](OP(=O)(O)O)[C@@H]3O)[C@@H](O)[C@H]2O)C=CC1; test: purified protein, by the assay type; conditions: pH 7.0; 55.0 °C
[6] = substrate: CC(=O)SCCNC(=O)CCNC(=O)[C@H](O)C(C)(C)COP(=O)(O)OP(=O)(O)OC[C@H]1O[C@@H](n2cnc3c(N)ncnc32)[C@H](O)[C@@H]1OP(=O)(O)O; test: purified protein, by the assay type; conditions: pH 7.0; 55.0 °C
[7] = substrate: NC(=O)C1=CN([C@@H]2O[C@H](COP(=O)(O)OP(=O)(O)OC[C@H]3O[C@@H](n4cnc5c(N)ncnc54)[C@H](O)[C@@H]3O)[C@@H](O)[C@H]2O)C=CC1; test: purified protein, by the assay type; conditions: pH 7.0; 55.0 °C; remark: listed apart in the source
[8] = substrate: CC=O; test: ADH reaction (acetaldehyde reduction) of purified AdhE, apparent kinetics; format: biochemical, Clostridium thermocellum; conditions: pH 7.0; 55.0 °C
Description: (§1) 500 μL of E. coli culture containing a plasmid with the adhE gene of interest was inoculated into 100 mL sterile LB broth Miller (Acros) with the appropriate antibiotic, and were grown aerobically to OD600 0.5 with shaking at 200 rpm at 37° C. (Eppendorf Innova 42 shaker). The E. coli strain harboring the pNT-CALML3 control plasmid (Invitrogen) was used as a negative control to measure native E. coli ADH or ALDH activity. The cultures were then transferred to sterile serum bottles, and 40 mM IPTG (Isopropyl β-D-1-thiogalactopyranoside) was used to induce protein expression. The serum bottles were then purged with nitrogen to generate an anaerobic protein expression environment, and the cells were cultured for 2 h at 37° C. before harvesting.
(§2) The E. coli crude extracts described above were incubated at 50° C. anaerobically for 20 min to denature E. coli proteins, and the denatured proteins were separated by centrifugation. In strains LL346 and LL1040, the AdhE proteins were heat labile, and lost activity after 50° C. incubation, so these cell extracts were applied directly to the purification column without heating. E. coli cells expressing the control plasmid pNT-CALML3 were subject to the same treatment as above, and its ADH and ALDH activities before and after heat treatment were measured (Table S3). The cell extracts containing His-tagged AdhE were then subjected to anaerobic affinity column purification (Ni-NTA spin columns, Qiagen). The purification was carried out according to the Qiagen protocol “Ni-NTA Agarose Purification of 6×His-tagged Proteins from E. coli under Native Conditions” with some modifications as described below. The column was first equilibrated with Equilibrium Buffer (50 mM NaH2PO4, 300 mM NaCl, 5 mM imidazole, 5 μM FeSO4, pH 7), then cell extracts were applied to the column and the column was washed twice with Wash Buffer (50 mM NaH2PO4, 300 mM NaCl, 50 mM imidazole, 20% ethanol, 5 μM FeSO4, pH 7). The His-tagged AdhE was eluted by addition of 200 μL Elution Buffer (50 mM NaH2PO4, 300 mM NaCl, 500 mM imidazole, 5 μM FeSO4, pH 7), this is “Eluent 1” in Table S3 and S4. Repeating this elution step sequentially generated more purified “Eluent 2” and “Eluent 3”. For C. thermocellum and T. saccharolyticum AdhE, activity was measured at various stages during purification. […] The degree of protein purity was estimated by gel densitometry using the image analysis software ImageJ, where the density of each visible gel band from Eluent 3 was plotted as peaks. The area of each peak was then integrated to generate percentages, which is an indicator of AdhE purity E. coli cell extracts with native AdhE expressed (i.e. without the His-tag) were used directly without purification.
(§3) All the ALDH activity measurements mentioned in this study refer to the reaction in the acetaldehyde-producing direction. All the ADH activity measurements mentioned in this study refer to the reaction in the ethanol-producing direction. For ADH (acetaldehyde reduction) reactions, the anaerobic reaction mixture contained 0.24 mM NADH or NADPH, 17.6 mM acetaldehyde, 1 mM DTT, 100 mM Tris-HCl, 5 μM FeSO4 and cell extract or purified protein solution (protein amount indicated separately for each assay). The final volume was 850 μL, the assay temperature was 55° C. and the assay was started by the addition of acetaldehyde. For ALDH (acetyl-CoA reduction) reactions, the acetaldehyde in the above anaerobic reaction mixture was substituted with 0.35 mM acetyl-CoA. Decrease in absorbance at 340 nm caused by NAD(P)H oxidation was monitored by an Agilent 8453 UV-Vis spectrophotometer with Peltier temperature control. Protein concentration was determined using the Bradford method with bovine serum albumin (Thermo Scientific) as the standard. Specific activities are expressed as units per mg of protein. One unit of activity=formation of 1 μmol of product per min Specific activities in Table 8 and Table 9 are reported for at least two biological replicates. […]

[9] = substrate: NC(=O)C1=CN([C@@H]2O[C@H](COP(=O)(O)OP(=O)(O)OC[C@H]3O[C@@H](n4cnc5c(N)ncnc54)[C@H](O)[C@@H]3O)[C@@H](O)[C@H]2O)C=CC1; test: as above; format: biochemical, Clostridium thermocellum; conditions: pH 7.0; 55.0 °C
Description: as §1, §2, §3

[10] = substrate: CC(=O)SCCNC(=O)CCNC(=O)[C@H](O)C(C)(C)COP(=O)(O)OP(=O)(O)OC[C@H]1O[C@@H](n2cnc3c(N)ncnc32)[C@H](O)[C@@H]1OP(=O)(O)O; test: ALDH reaction (acetyl-CoA reduction) of purified AdhE, apparent kinetics; format: biochemical, Clostridium thermocellum; conditions: pH 7.0; 55.0 °C
Description: as §1, §2, §3

[11] = substrate: NC(=O)C1=CN([C@@H]2O[C@H](COP(=O)(O)OP(=O)(O)OC[C@H]3O[C@@H](n4cnc5c(N)ncnc54)[C@H](O)[C@@H]3O)[C@@H](O)[C@H]2O)C=CC1; test: as above; format: biochemical, Clostridium thermocellum; conditions: pH 7.0; 55.0 °C
Description: as §1, §2, §3

[12] = in the presence of 2.35 mM NAD^+

NAD(P)^+
activity inhibited by NAD(P)^+ [1]: at least 70%

CCO [ethanol]
increase in ADH activity ([2]; purified adhe): 2 fold

NC(=O)c1ccc[n+]([C@@H]2O[C@H](COP(=O)([O-])OP(=O)(O)OC[C@H]3O[C@@H](n4cnc5c(N)ncnc54)[C@H](O)[C@@H]3O)[C@@H](O)[C@H]2O)c1 [NAD^+]
ADH activity retained [2, 12]: 98% | ALDH activity retained [2, 12]: 92% | inhibition by NAD^+ ([2]; purified AdhE, concentration not stated): less than 10%

B1: (Acetivibrio thermocellus; D494G) (protein)
chain: MTKIANKYEVIDNVEKLEKALKRLREAQSVYATYTQEQVDKIFFEAAMAANKMRIPLAKMAVEETGMGVVEDKVIKNHYASEYIYNAYKNTKTCGVIEEDPAFGIKKIAEPLGVIAAVIPTTNPTSTAIFKTLIALKTRNAIIISPHPRAKNSTIEAAKIVLEAAVKAGAPEGIIGWIDVPSLELTNLVMREADVILATGGPGLVKAAYSSGKPAIGVGAGNTPAIIDDSADIVLAVNSIIHSKTFDNGMICASEQSVIVLDGVYKEVKKEFEKRGCYFLNEDETEKVRKTIIINGALNAKIVGQKAHTIANLAGFEVPETTKILIGEVTSVDISEEFAHEKLCPVLAMYRAKDFDDALDKAERLVADGGFGHTSSLYIDTVTQKEKLQKFSERMKTCRILVNTPSSQGGIGDLYNFKLAPSLTLGCGSWGGNSVSDNVGVKHLLNIKTVAERRENMLWFRTPEKIYIKRGCLPVALDELKNVMGKKKAFIVTGNFLYNNGYTKPITDKLDEMGIVHKTFFDVSPDPSLASAKAGAAEMLAFQPDTIIAVGGGSAMDAAKIMWVMYEHPEVDFMDMAMRFMDIRKRVYTFPKMGQKAYFIAIPTSAGTGSEVTPFAVITDEKTGIKYPLADYELLPDMAIVDADMMMNAPKGLTAASGIDALTHALEAYVSMLATDYTDSLALRAIKMIFEYLPRAYENGASDLVAREKMANAATIAGMAFANAFLGVCHSMARKLGAFYHLPHGVANALMINEVIRFNSSEAPTKMGTFPQYDHPRTLERYAEIADYIGLKGKNNEEKVENLIKAIDELKEKVGIRKTIKDYDIDEKEFLDRLDEMVEQAFDDQCTGTNPRYPLMNEIRQMYLNAYYGGAKK
Km [3]: 2100 ± 200 µM and 1800 ± 200 µM | kcat [3]: 318 s⁻¹ and 246 s⁻¹ | kcat/Km [3]: 150000 M⁻¹ s⁻¹ and 140000 M⁻¹ s⁻¹ | Km [4]: 400 ± 50 µM | kcat [4]: 319 ± 21 s⁻¹ | kcat/Km [4]: 890000 M⁻¹ s⁻¹ | Km [5]: 80 ± 20 µM | kcat [5]: 295 ± 18 s⁻¹ | kcat/Km [5]: 3.8e+06 M⁻¹ s⁻¹ | Km [6]: 4 ± 0.5 µM | kcat [6]: 202 ± 4 s⁻¹ | kcat/Km [6]: 5.8e+07 M⁻¹ s⁻¹ | Km [7]: 20 ± 2 µM | kcat [7]: 64 ± 2 s⁻¹ | kcat/Km [7]: 3.4e+06 M⁻¹ s⁻¹

B2: (Acetivibrio thermocellus) (protein)
chain: MTKIANKYEVIDNVEKLEKALKRLREAQSVYATYTQEQVDKIFFEAAMAANKMRIPLAKMAVEETGMGVVEDKVIKNHYASEYIYNAYKNTKTCGVIEEDPAFGIKKIAEPLGVIAAVIPTTNPTSTAIFKTLIALKTRNAIIISPHPRAKNSTIEAAKIVLEAAVKAGAPEGIIGWIDVPSLELTNLVMREADVILATGGPGLVKAAYSSGKPAIGVGAGNTPAIIDDSADIVLAVNSIIHSKTFDNGMICASEQSVIVLDGVYKEVKKEFEKRGCYFLNEDETEKVRKTIIINGALNAKIVGQKAHTIANLAGFEVPETTKILIGEVTSVDISEEFAHEKLCPVLAMYRAKDFDDALDKAERLVADGGFGHTSSLYIDTVTQKEKLQKFSERMKTCRILVNTPSSQGGIGDLYNFKLAPSLTLGCGSWGGNSVSDNVGVKHLLNIKTVAERRENMLWFRTPEKIYIKRGCLPVALDELKNVMGKKKAFIVTDNFLYNNGYTKPITDKLDEMGIVHKTFFDVSPDPSLASAKAGAAEMLAFQPDTIIAVGGGSAMDAAKIMWVMYEHPEVDFMDMAMRFMDIRKRVYTFPKMGQKAYFIAIPTSAGTGSEVTPFAVITDEKTGIKYPLADYELLPDMAIVDADMMMNAPKGLTAASGIDALTHALEAYVSMLATDYTDSLALRAIKMIFEYLPRAYENGASDLVAREKMANAATIAGMAFANAFLGVCHSMARKLGAFYHLPHGVANALMINEVIRFNSSEAPTKMGTFPQYDHPRTLERYAEIADYIGLKGKNNEEKVENLIKAIDELKEKVGIRKTIKDYDIDEKEFLDRLDEMVEQAFDDQCTGTNPRYPLMNEIRQMYLNAYYGGAKK
Km [8]: 1300 ± 200 µM | kcat [8]: 238 ± 8 s⁻¹ | kcat/Km [8]: 180000 M⁻¹ s⁻¹ | Km [9]: 100 ± 20 µM | kcat [9]: 302 ± 13 s⁻¹ | kcat/Km [9]: 2.3e+06 M⁻¹ s⁻¹ | Km [10]: 8 ± 2 µM | kcat [10]: 297 ± 11 s⁻¹ | kcat/Km [10]: 3.5e+07 M⁻¹ s⁻¹ | Km [11]: 60 ± 4 µM | kcat [11]: 152 ± 4 s⁻¹ | kcat/Km [11]: 2.8e+06 M⁻¹ s⁻¹
